Consider two substances from patent US20260116996A1 (REGENTS OF THE UNIVERSITY OF MINNESOTA, published 2026).

The target of one data set is mouse serpinB13 (mouse) (UniProt Q8CDC0). Kind of data set: flow cytometry, isotype control staining in place of B29 and anti-EpCAM; the tissue of this panel is not named. (In general: A flow cytometer gives signals particle by particle.)
Data set [1] deals with T1, recombinant human serpinB13 (human, UniProt Q9UIV8 1-391).
T1 construct: The baculovirus-made protein (GenScript) was used for panning, ELISA and the cathepsin L assay; In the Luminex assay human serpinB13 was V5-His tagged and came from 293 cell lysates; also called rhB13
T1 sequence (looked up): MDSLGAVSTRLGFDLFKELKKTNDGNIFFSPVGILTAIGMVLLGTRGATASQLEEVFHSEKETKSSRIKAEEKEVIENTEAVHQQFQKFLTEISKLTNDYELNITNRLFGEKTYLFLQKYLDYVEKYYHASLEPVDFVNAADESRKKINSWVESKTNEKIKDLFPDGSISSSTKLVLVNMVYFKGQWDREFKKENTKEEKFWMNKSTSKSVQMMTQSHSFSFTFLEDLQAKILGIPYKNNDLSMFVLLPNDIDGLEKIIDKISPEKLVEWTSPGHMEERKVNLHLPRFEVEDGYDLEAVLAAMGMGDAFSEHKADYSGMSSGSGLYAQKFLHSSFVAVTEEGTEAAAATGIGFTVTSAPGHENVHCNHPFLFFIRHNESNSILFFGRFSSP

Chain of mouse serpinB13 (mouse) (Q8CDC0 whole entry): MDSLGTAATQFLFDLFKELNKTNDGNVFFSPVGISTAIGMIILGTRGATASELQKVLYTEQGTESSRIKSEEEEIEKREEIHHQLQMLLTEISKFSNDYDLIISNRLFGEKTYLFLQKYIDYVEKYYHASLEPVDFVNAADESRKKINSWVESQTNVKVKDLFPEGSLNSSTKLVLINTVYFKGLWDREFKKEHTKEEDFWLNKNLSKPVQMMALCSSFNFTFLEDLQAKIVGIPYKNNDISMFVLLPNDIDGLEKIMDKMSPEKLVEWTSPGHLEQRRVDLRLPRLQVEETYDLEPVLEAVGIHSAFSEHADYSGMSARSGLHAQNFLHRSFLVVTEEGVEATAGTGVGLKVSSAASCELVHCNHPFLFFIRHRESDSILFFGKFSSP

In the data set with mouse serpinB13 (mouse), Control Ab (antibody) yielded a quadrant Q1 (SerpinB13-Alexa647 high, EpCAM low), percent of cells of 0.43. For the substance “cathepsin L (Cathepsin L Inhibitor Screening Kit, BioVision)”, in data set [1], the “substrate cleavage by CatL (fluorescence, kinetic mode)” value was “Inhibition of a substrate cleavage by CatL with different doses of recombinant human serpinB13 over time”.
